Laboratory results as given in patent US20190381088, “ANTI-IL-17 APTAMER HAVING IMPROVED RETENTION IN BLOOD” (ZENYAKU KOGYO CO., LTD., published 2019).

T1: IL-17 (human IL-17) (Homo sapiens, UniProt Q16552 Q16552:24-155)
T1 sequence: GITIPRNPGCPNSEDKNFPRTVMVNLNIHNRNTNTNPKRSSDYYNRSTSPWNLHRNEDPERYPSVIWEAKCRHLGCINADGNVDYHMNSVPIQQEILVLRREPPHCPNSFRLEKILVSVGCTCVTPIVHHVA


Tests used:
[1] = target: T1, IL-17 (human IL-17); assay: cell_activity; inhibition of IL-17 (10 ng/mL) + mouse TNF induced IL-6 in NIH3T3 cells, 37 C preincubation 30 min; settings: chain copies: 2 inferred (homodimer)
Procedure: (§1) Human IL-17 (10 ng/mL) and aptamers diluted to various concentrations were pre-incubated at 37° C. for 30 min, and added to NIH3T3 cells (ATCC, CRL1658, 1.25×10⁵ cell/mL) together with mouse TNF (2 ng/mL). Then, after incubation for 24 hr, the culture supernatant was collected. After preservation at −70° C., the amount of produced IL-6 was measured by the ELISA method. The IL-17 inhibitory action of each aptamer was evaluated from the amount of produced IL-6.
A microtiter plate for ELISA was coated with rat anti-mouse IL-6 antibody (BD Biosciences, 2 μg/mL; 100 μL/well) diluted with PBS, and incubated at 4° C. overnight. The next day, the microtiter plate was washed 3 times with PBS/0.05% Tween 20, and blocked with PBS/1% BSA (200 μL/well) at room temperature for 2 hr. Then, the plate was washed 3 times with PBS/0.05% Tween 20. Recombinant mouse IL-6 (BD Biosciences; 100 μL/well) serially diluted with PBS/1% BSA/0.05% Tween 20 or culture supernatants (100 μL/well) were added to the plate. After incubation at room temperature for 2 hr, the plate was washed 3 times with PBS/0.05% Tween 20. Then, 100 μL/well of biotin conjugated rat anti-mouse IL-6 antibody (BD Biosciences) was added at final dilution of 1/500, and the mixture was reacted at room temperature for 1 hr. After washing 3 times with PBS/0.05% Tween 20, 100 μL/well of alkaline phosphatase conjugated streptavidin was added at final dilution of 1/1000. After 30 min at room temperature, the plate was again washed 4 times with PBS/0.05% Tween 20, and a substrate (1-Step PNPP; Thermo Fisher Scientific Inc; 100 μL/well) was added. After 15 min, aqueous sodium hydroxide solution (2N: 50 μL/well) was added to stop the reaction, and the plate was read on a microtiter reader (Bio-Rad) by using a 405 nm filter.

[2] = target: T1, IL-17 (human IL-17); assay: cell_activity; nucleic acid alone; IL-6 release from NIH3T3 cells; settings: chain copies: 2 inferred (homodimer)
Procedure: Aptamers in which a brancher, a spacer, an ssH amino linker were added to the nucleic acid sequences of Example sequences 1, 2, 3 and 4, and 40 kDa 2 branched PEG was added (total PEG molecular weight: 80 kDa each) were synthesized (FIG. 1 structure 1). The IL-17 neutralization activity of each aptamer was measured along with the aptamer having the original nucleic acid sequence alone. The evaluation was based on the measurement of the amount of IL-6 released in the cultured cells by the stimulation of IL-17 and TNFα to the cells.
as §1
A microtiter plate for ELISA was coated with rat anti-mouse IL-6 antibody (BD Biosciences, 2 μg/mL; 100 μL/well) diluted with PBS, and incubated at 4° C. overnight. The next day, the microtiter plate was washed 3 times with PBS/0.05% Tween 20, and blocked with PBS/1% BSA (200 μL/well) at room temperature for 2 hr. Then, the plate was washed 3 times with PBS/0.05% Tween 20. […]

Row | Binder | IC50 [1] [nM] | IC50 [2] [nM]
1 | GGGUAGCCGGAGGAGTCAGTAAUCGGUACCC (mixed, 2'-OMe at 1-4,7,8,10,13,14,23-26,28; 2'-F at 11,17,18,27; PS at g6; DNA at A5,G9,T16,T20,C29-C31; rest 2'-OH RNA; 3' idT (stated for in vivo tests); 5' symmetrical brancher with spacer + ssH amino linker + 2 x 40 kDa branched PEG (80 kDa total)) [Example sequence 1 (aptamer No. 8) PEG-linker-spacer-brancher] | 0.041 | 
2 | GGGUAGCCGGAGGAGTCAGTAAUCGGUACCC (mixed, 2'-OMe at 1-4,7,8,10,13,14,23-26,28; 2'-F at 17,27; DNA at A5,G9,T16,T20,C29-C31; rest 2'-OH RNA; 3' idT (stated for in vivo tests); 5' symmetrical brancher with spacer + ssH amino linker + 2 x 40 kDa branched PEG (80 kDa total)) [Example sequence 2 (aptamer No. 48) PEG-linker-spacer-brancher] | 0.18 | 
3 | GGGUAGCCGGAGGAGTCAGTAAUCGGUACCC (mixed, 2'-OMe at 1-4,7,8,10,13,14,23-26,28-31; 2'-F at 11,17,18,27; PS at g6; DNA at A5,G9,T16,T20; rest 2'-OH RNA; 3' idT (stated for in vivo tests); 5' symmetrical brancher with spacer + ssH amino linker + 2 x 40 kDa branched PEG (80 kDa total)) [Example sequence 4 (aptamer No. 93) PEG-linker-spacer-brancher] | 0.06 | 
4 | GGGUAGCCGGAGGAGTCAGTAAUCGGUACCC (mixed, 2'-OMe at 1-4,7,8,10,13,14,23-26,28; 2'-F at 11,17,18,27; PS at g6; DNA at A5,G9,T16,T20,C29-C31; rest 2'-OH RNA; no PEG) [Example sequence 1 (aptamer No. 8) nucleic acid alone] |  | 0.223
5 | GGGUAGCCGGAGGAGTCAGTAAUCGGUACCC (mixed, 2'-OMe at 1-4,7,8,10,13,14,23-26,28-31; 2'-F at 11,17,18,27; PS at g6; DNA at A5,G9,T16,T20; rest 2'-OH RNA; no PEG) [Example sequence 4 (aptamer No. 93) nucleic acid alone] |  | 0.123
